Data set [1] has as its system IolR-His6 (Salmonella enterica serovar Typhimurium 14028). Nature of the data set: SPR (OneToTwo). To be noted: EMSA: 100 ng DNA in 1x Tris/borate/EDTA, 20 ul, 45 min, 12% native PAA gel run at 4 C, SPR: streptavidin chip, 30 ul/min, 25 C, 0-330 nM IolR, buffer not in …. Background: In EMSA bound probe runs differently from free probe, usually more slowly.
The test system is the same in data set [2]. Nature of the data set: SPR (Interaction Map). To be noted: EMSA: 100 ng DNA in 1x Tris/borate/EDTA, 20 ul, 45 min, 12% native PAA gel run at 4 C, SPR: streptavidin chip, 30 ul/min, 25 C, 0-330 nM IolR, buffer not in ….
The target of data set [3] is T1, IolR-His6 (Salmonella enterica serovar Typhimurium 14028) (UniProt Q8ZK65).
T1 sequence: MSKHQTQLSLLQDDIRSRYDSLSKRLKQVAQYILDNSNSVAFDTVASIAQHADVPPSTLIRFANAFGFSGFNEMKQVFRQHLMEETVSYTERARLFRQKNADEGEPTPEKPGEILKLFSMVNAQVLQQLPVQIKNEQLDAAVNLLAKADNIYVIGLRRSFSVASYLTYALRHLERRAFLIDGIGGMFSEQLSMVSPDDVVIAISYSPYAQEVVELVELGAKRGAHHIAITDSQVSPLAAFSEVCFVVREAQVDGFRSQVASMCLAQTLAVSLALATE
Nature of the data set: SPR (OneToTwo). To be noted: EMSA: 100 ng DNA in 1x Tris/borate/EDTA, 20 ul, 45 min, 12% native PAA gel run at 4 C; SPR: streptavidin chip, 30 ul/min, 25 C, 0-330 nM IolR, buffer not in ….

In the case of PiolR SPR fragment, the Kd (as a rule, the constant that tells how readily two partners part at equilibrium) in data set [1] (KD1, ka1 1.3e5 M-1s-1, kd1 5.5e-2 s-1) came to 425 nM; in data set [1] (KD2, ka2 2.4e5 M-1s-1, kd2 1.4e-3 s-1) it was 6 nM.

On to PreiD SPR fragment, for which the Kd in data set [1] (KD1, ka1 1.5e5 M-1s-1, kd1 4.9e-2 s-1) was 321 nM; in data set [1] (KD2, ka2 2.1e5 M-1s-1, kd2 1.4e-3 s-1), 6.6 nM.

Regarding PiolT1 SPR fragment, the Kd amounted to 0.81 nM in data set [2] (high-affinity component, peak weight 40.5%, ka 6.95e5 M-1s-1, kd 5.78e-4 s-1) and 312 nM in data set [2] (low-affinity component, peak weight 57.6%, ka 1.05e5 M-1s-1, kd 3.2e-2 s-1).

As to “TTGCTCAGAACCCAGCCCGCCAGCAAATTCTGTACTGAAGGTAACCACAGCGCAATTTGAATGTTGTTAACTGTATGTTCAGTTCATTTGTGCTAATATGGTTATTTACGAAATTTTCGTTCTATTAGAGTATCATGCATGTCTAAACATCAAACTCAACTTTCCTTACTGCAGGATGATATCCGCAG (double strand) [PiolR SPR fragment]”, the Kd in data set [3] was 425 nM.

Regarding “GGTGTGTCATCAATGGTTGTCTGTTGTGACGAGGAAAGATTTGGAAAAAATTATGATCTATATAGCATTTTTGTTTCATTTGGTGTGGTATAAAAATTCAAATTTCAGGGGGGTTTCGGCACCACA (double strand) [PreiD SPR fragment]”, in data set [3], the Kd was 321 nM.

The values above are taken from paper PMC5349611.
